Publication PMC7997659, “Architecture and structural dynamics of the heteromeric GluK2/K5 kainate receptor” (eLife, 2021)

B1: GluK2em (rat GluK2 cryo-EM expression construct) (receptor, UniProt P42260 32-908, looked up)
chain: TTHVLRFGGIFEYVESGPMGAEELAFRFAVNTINRNRTLLPNTTLTYDTQKINLYDSFEASKKACDQLSLGVAAIFGPSHSSSANAVQSICNALGVPHIQTRWKHQVSDNKDSFYVSLYPDFSSLSRAILDLVQFFKWKTVTVVYDDSTGLIRLQELIKAPSRYNLRLKIRQLPADTKDAKPLLKEMKRGKEFHVIFDCSHEMAAGILKQALAMGMMTEYYHYIFTTLDLFALDVEPYRYSGVNMTGFRILNTENTQVSSIIEKWSMERLQAPPKPDSGLLDGFMTTDAALMYDAVHVVSVAVQQFPQMTVSSLQCNRHKPWRFGTRFMSLIKEAHWEGLTGRITFNKTNGLRTDFDLDVISLKEEGLEKIGTWDPASGLNMTESQKGKPANITDSLSNRSLIVTTILEEPYVLFKKSDKPLYGNDRFEGYCIDLLRELSTILGFTYEIRLVEDGKYGAQDDVNGQWNGMVRELIDHKADLAVAPLAITYVREKVIDFSKPFMTLGISILYRKPNGTNPGVFSFLNPLSPDIWMYVLLAYLGVSVVLFVIARFSPYEWYNPHPSNPDSDVVENNFTLLNSFWFGVGALMQQGSELMPKALSTRIVGGIWWFFTLIIISSYTANLAAFLTVERMESPIDSADDLAKQTKIEYGAVEDGATMTFFKKSKISTYDKMWAFMSSRRQSVLVKSNEEGIQRVLTSDYAFLMESTTIEFVTQRNCNLTQIGGLIDSKGYGVGTPMGSPYRDKITIAILQLQEEGKLHMMKEKWWRGNGCPEEESKEASALGVQNIGGIFIVLAAGLVLSVFVAVGEFLYKSKKNAQLEKRSFCSAMVEELRMSLKCQRRLKHKPQAPVIVKTEEVINMHTFNDRRLPGKETMA
modifications: N-linked glycans at N67, N378, N412, N546
notes: signal peptide in the construct; rat GluK2 (GRIK2_RAT), full-length gene, RNA-edited at position 567 (I to V), with C576V and C595S; Two copies stand in the GluK2/K5em tetramer (B/D positions); No thrombin cleavage step is told in the purification; also called B/D subunits; source: HEK293S GnTI- cells, BacMam, co-expressed with GluK5em, purified (Strep-Tactin, 1D4 resin, Superose 6); HEK293T, …

Columns and labels:
[1] = molecular target: the molecule itself; test: cryo-EM structure; GluK2/K5em co-expressed and co-purified in DDM/CHS, 3.7 mg/mL, with 1 mM CNQX (antagonist-bound); full-length 5.3 Å, ATD layer 3.6 Å, LBD-TMD 4.2 Å
[2] = molecular target: B1; test: as above; settings: both partners purified
[3] = molecular target: wild-type GluK2 (rat) (UniProt P42260)

## B1
[1]
  binding result: binds

B2: GluK5em (rat GluK5 cryo-EM expression construct) (receptor)
chain: NPSCQVLSSLRMAAILDDQTVCGRGERLALALAREQINGIIEVPAKARVEVDIFELQRDSQYETTDTMCQILPKGVVSVLGPSSSPASASTVSHICGEKEIPHIKVGPEETPRLQYLRFASVSLYPSNEDVSLAVSRILKSFNYPSASLICAKAECLLRLEELVRGFLISKETLSVRMLDDSRDPTPLLKEIRDDKVSTIIIDANASISHLVLRKASELGMTSAFYKYILTTMDFPILHLDGIVEDSSNILGFSMFNTSHPFYPEFVRSLNMSWRENCEASTYPGPALSAALMFDAVHVVVSAVRELNRSQEIGVKPLACTSANIWPHGTSLMNYLRMVEYDGLTGRVEFNSKGQRTNYTLRILEKSRQGHREIGVWYSNRTLAMNATTLDINLSQTLANKTLVVTTILENPYVMRRPNFQALSGNERFEGFCVDMLRELAELLRFRYRLRLVEDGLYGAPEPNGSWTGMVGELINRKADLAVAAFTITAEREKVIDFSKPFMTLGISILYRVHMGRKPGYFSFLDPFSPAVWLFMLLAYLAVSVVLFLAARLSPYEWYNPHPSLRARPHILENQYTLGNSLWFPVGGFMQQGSEIMPRALSTRIVSGVWWAFTLIIISSYTANLAAFLTVQRMEVPVESADDLADQTNIEYGTIHAGSTMTFFQNSRYQTYQRMWNYMQSKQPSVFVKSTEEGIARVLNSRYAFLLESTMNEYHRRLNCNLTQIGGLLDTKGYGIGMPLGSPFRDEITLAILQLQENNRLEILKRKWWEGGRCPKEEDHRAKGLGMENIGGIFVVLIAGLIIAVFVAVMEFIYKSRAEAKRMK
modifications: N-linked glycans at N219, N271, N322, N372, N394
notes: signal peptide in the construct; rat GluK5 (GRIK5_RAT), from the full-length gene, truncated at position 827 after the M4 helix, four cysteines mutated; GluA2 'tail' ('A2 tail') added at the subunit C-terminus in place of the GluK5 C-terminus; GluK5 with point mutations and its C-terminus replaced by the GluA2 tail; Two copies stand in the GluK2/K5em tetramer (A/C positions); No thrombin cleavage …
[2]
  stoichiometry N: 1 GluK5 per GluK2 (printed as 2:2)

B3: wild-type GluK5 (receptor)
chain: NPSCQVLSSLRMAAILDDQTVCGRGERLALALAREQINGIIEVPAKARVEVDIFELQRDSQYETTDTMCQILPKGVVSVLGPSSSPASASTVSHICGEKEIPHIKVGPEETPRLQYLRFASVSLYPSNEDVSLAVSRILKSFNYPSASLICAKAECLLRLEELVRGFLISKETLSVRMLDDSRDPTPLLKEIRDDKVSTIIIDANASISHLVLRKASELGMTSAFYKYILTTMDFPILHLDGIVEDSSNILGFSMFNTSHPFYPEFVRSLNMSWRENCEASTYPGPALSAALMFDAVHVVVSAVRELNRSQEIGVKPLACTSANIWPHGTSLMNYLRMVEYDGLTGRVEFNSKGQRTNYTLRILEKSRQGHREIGVWYSNRTLAMNATTLDINLSQTLANKTLVVTTILENPYVMRRPNFQALSGNERFEGFCVDMLRELAELLRFRYRLRLVEDGLYGAPEPNGSWTGMVGELINRKADLAVAAFTITAEREKVIDFSKPFMTLGISILYRVHMGRKPGYFSFLDPFSPAVWLFMLLAYLAVSCVLFLAARLSPYEWYNPHPCLRARPHILENQYTLGNSLWFPVGGFMQQGSEIMPRALSTRCVSGVWWAFTLIIISSYTANLAAFLTVQRMEVPVESADDLADQTNIEYGTIHAGSTMTFFQNSRYQTYQRMWNYMQSKQPSVFVKSTEEGIARVLNSRYAFLLESTMNEYHRRLNCNLTQIGGLLDTKGYGIGMPLGSPFRDEITLAILQLQENNRLEILKRKWWEGGRCPKEEDHRAKGLGMENIGGIFVVLICGLIIAVFVAVMEFIWSTRRSAESEEVSVCQEMLQELRHAVSCRKTSRSRRRRRPGGPSRALLSLRAVREMRLSNGKLYSAGAGGDAGAHGGPQRLLDDPGPPGGPRPQAPTPCTHVRVCQECRRIQALRASGAGAPPRGLGTPAEATSPPRPRPGPTGPRELTEHE
[3]
  deactivation current decay after a 1 ms pulse of 1 mM L-Glu, outside-out patches of HEK293T cells co-transfected with wild-type GluK2 and GluK5; weighted τ: 23.6 ms
  deactivation current decay after a 1 ms pulse of 1 mM L-Glu, outside-out patches of HEK293T cells co-transfected with wild-type GluK2 and GluK5; τ3 (slow component): 60 ms
